Source: paper PMC9166816, “RNF219 regulates CCR4-NOT function in mRNA translation and deadenylation” (Scientific Reports, 2022)
One block for each binder: values may come before it.

Biological target: CCR4-NOT complex (human (endogenous in human cell lines), UniProt A5YKK6 1-2376; Q9NZN8 1-540; O75175 1-753; Q9H9A5 1-744; Q9UKZ1 1-510)
Assay: cell-based or functional assay

Renilla/Firefly luciferase ratio (RL/FL) of the 5BoxB reporter with tethered NHA-RNF219-Id (lambdaN-HA tagged form of the allele): 1.5 RL/FL ratio
B1: RNF219-Id, CCR4-NOT complex interaction defective RNF219 allele (natural protein)
chain: MAQTVQNVTLSLTLPITCHICLGKVRQPVICINNHVFCSICIDLWLKNNSQCPACRVPITPENPCKEIIGGTSESEPMLSHTVRKHLRKTRLELLHKEYEDEIDCLQKEVEELKSKNLSLESQIKTILDPLTLVQGNQNEDKHLVTDNPSKINPETVAEWKKKLRTANEIYEKVKDDVDKLKEANKKLKLENGGLVRENLRLKAEVDNRSPQKFGRFAVAALQSKVEQYERETNRLKKALERSDKYIEELESQVAQLKNSSEEKEAMNSICQTALSADGKGSKGSEEDVVSKNQGDSARKQPGSSTSSSSHLAKPSSSRLCDTSSARQESTSKADLNCSKNKDLYQEQVEVMLDVTDTSMDTYLEREWGNKPSDCVPYKDEELYDLPAPCTPLSLSCLQLSTPENRESSVVQAGGSKKHSNHLRKLVFDDFCDSSNVSNKDSSEDDISRSENEKKSECFSSPKTGFWDCCSTSYAQNLDFESSEGNTIANSVGEISSKLSEKSGLCLSKRLNSIRSFEMNRTRTSSEASMDAAYLDKISVENSKSPCNNGFKSLDLDGLSKSSQGSEFLEEPDKLEEKTELNLSKGSLTNDQLENGSEWKPTSFFLLSPSDQEMNEDFSLHSSSCPVTNEIKPPSCLFQTEFSQGILLSSSHRLFEDQRFGSSLFKMSSEMHSLHNHLQSPWSTSFVPEKRNKNVNQSTKRKIQSSLSSASPSKATKS

Renilla/Firefly luciferase ratio (RL/FL) of the 5BoxB reporter with tethered NHA-RNF219: 0.307 RL/FL ratio
B2: lambdaN-peptide and HA-tagged RNF219 (NHA-RNF219) (natural protein)
chain: MAQTVQNVTLSLTLPITCHICLGKVRQPVICINNHVFCSICIDLWLKNNSQCPACRVPITPENPCKEIIGGTSESEPMLSHTVRKHLRKTRLELLHKEYEDEIDCLQKEVEELKSKNLSLESQIKTILDPLTLVQGNQNEDKHLVTDNPSKINPETVAEWKKKLRTANEIYEKVKDDVDKLKEANKKLKLENGGLVRENLRLKAEVDNRSPQKFGRFAVAALQSKVEQYERETNRLKKALERSDKYIEELESQVAQLKNSSEEKEAMNSICQTALSADGKGSKGSEEDVVSKNQGDSARKQPGSSTSSSSHLAKPSSSRLCDTSSARQESTSKADLNCSKNKDLYQEQVEVMLDVTDTSMDTYLEREWGNKPSDCVPYKDEELYDLPAPCTPLSLSCLQLSTPENRESSVVQAGGSKKHSNHLRKLVFDDFCDSSNVSNKDSSEDDISRSENEKKSECFSSPKTGFWDCCSTSYAQNLDFESSEGNTIANSVGEISSKLSEKSGLCLSKRLNSIRSFEMNRTRTSSEASMDAAYLDKISELDSMMSESDNSKSPCNNGFKSLDLDGLSKSSQGSEFLEEPDKLEEKTELNLSKGSLTNDQLENGSEWKPTSFFLLSPSDQEMNEDFSLHSSSCPVTNEIKPPSCLFQTEFSQGILLSSSHRLFEDQRFGSSLFKMSSEMHSLHNHLQSPWSTSFVPEKRNKNVNQSTKRKIQSSLSSASPSKATKS
